In paper PMC4081072, “Structure and semi-sequence-specific RNA binding of Nrd1”:

T1: Nrd1 307-491 WT (Saccharomyces cerevisiae, UniProt P53617 307-491)
T1 sequence: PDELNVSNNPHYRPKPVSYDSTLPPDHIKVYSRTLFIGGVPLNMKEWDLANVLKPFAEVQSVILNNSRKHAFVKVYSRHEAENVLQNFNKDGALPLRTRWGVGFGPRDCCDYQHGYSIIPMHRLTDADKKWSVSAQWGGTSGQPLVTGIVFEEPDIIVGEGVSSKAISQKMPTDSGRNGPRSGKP

T2: Nrd1 307-491 G409A (Saccharomyces cerevisiae, UniProt P53617 307-491, G409A)
T2 sequence: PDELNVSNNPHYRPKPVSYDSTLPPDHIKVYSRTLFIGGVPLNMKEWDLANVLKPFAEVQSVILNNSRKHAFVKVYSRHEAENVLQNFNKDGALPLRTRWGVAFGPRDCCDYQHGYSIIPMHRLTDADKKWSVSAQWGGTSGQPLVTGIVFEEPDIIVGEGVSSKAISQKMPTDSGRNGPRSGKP

T3: Nrd1 307-491 K435D (Saccharomyces cerevisiae, UniProt P53617 307-491, K435D)
T3 sequence: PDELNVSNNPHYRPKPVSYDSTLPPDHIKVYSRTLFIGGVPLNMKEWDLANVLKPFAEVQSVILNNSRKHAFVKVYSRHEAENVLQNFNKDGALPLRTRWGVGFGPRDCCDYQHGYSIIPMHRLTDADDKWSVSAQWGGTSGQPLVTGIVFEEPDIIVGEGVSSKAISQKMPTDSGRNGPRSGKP

T4: Nrd1 307-491 F342A (Saccharomyces cerevisiae, UniProt P53617 307-491, F342A)
T4 sequence: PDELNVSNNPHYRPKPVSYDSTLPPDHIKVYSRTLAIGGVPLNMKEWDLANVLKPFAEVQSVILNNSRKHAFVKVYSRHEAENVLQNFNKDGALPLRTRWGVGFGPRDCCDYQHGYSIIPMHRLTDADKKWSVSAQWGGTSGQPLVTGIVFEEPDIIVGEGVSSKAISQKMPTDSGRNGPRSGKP

T5: Nrd1 307-491 T431R (Saccharomyces cerevisiae, UniProt P53617 307-491, T431R)
T5 sequence: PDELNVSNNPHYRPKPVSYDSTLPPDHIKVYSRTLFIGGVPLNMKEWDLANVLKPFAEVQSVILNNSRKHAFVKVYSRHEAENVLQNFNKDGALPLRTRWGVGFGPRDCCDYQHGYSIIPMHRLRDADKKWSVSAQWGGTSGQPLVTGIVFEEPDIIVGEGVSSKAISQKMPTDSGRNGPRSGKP

T6: Nrd1 307-491 D417A (Saccharomyces cerevisiae, UniProt P53617 307-491, D417A)
T6 sequence: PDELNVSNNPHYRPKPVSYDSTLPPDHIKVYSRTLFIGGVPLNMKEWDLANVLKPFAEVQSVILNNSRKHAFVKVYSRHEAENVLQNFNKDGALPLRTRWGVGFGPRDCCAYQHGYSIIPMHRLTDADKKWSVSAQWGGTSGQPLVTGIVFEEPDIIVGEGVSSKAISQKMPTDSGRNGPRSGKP

T7: Nrd1 307-491 R429D (Saccharomyces cerevisiae, UniProt P53617 307-491, R429D)
T7 sequence: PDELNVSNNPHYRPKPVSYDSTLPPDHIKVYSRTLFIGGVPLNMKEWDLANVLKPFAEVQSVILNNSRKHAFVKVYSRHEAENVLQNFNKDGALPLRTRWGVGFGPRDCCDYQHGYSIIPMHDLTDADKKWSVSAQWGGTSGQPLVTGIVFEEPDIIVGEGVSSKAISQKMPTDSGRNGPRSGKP

T8: Nrd1 307-491 H376A (Saccharomyces cerevisiae, UniProt P53617 307-491, H376A)
T8 sequence: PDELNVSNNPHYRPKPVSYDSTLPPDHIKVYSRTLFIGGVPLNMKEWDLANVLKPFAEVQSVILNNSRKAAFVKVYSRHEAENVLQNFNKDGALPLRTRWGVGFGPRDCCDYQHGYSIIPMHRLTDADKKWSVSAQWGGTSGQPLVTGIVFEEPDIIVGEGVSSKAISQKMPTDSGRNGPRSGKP

T9: Nrd1 307-491 F378A (Saccharomyces cerevisiae, UniProt P53617 307-491, F378A)
T9 sequence: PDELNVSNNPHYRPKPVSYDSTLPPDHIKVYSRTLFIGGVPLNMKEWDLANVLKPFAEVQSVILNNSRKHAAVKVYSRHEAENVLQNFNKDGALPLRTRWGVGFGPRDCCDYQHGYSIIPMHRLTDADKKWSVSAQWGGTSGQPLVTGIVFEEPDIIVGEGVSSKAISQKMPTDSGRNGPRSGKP


Assays:
[1] = molecular target: T1, Nrd1 307-491 WT; assay: fluorescence anisotropy; FA: 10 nM RNA, 50 mM sodium phosphate pH 8, 150 mM NaCl, 10 mM beta-mercaptoethanol, 20 C (protein stock in 300 mM NaCl); NMR: same buffer with 300 mM NaCl, 20; conditions: protein: recombinant, tags: C-terminal His6
[2] = molecular target: T1, Nrd1 307-491 WT; assay: fluorescence anisotropy; prolonged incubation between aliquots; FA: 10 nM RNA, 50 mM sodium phosphate pH 8, 150 mM NaCl, 10 mM beta-mercaptoethanol, 20 C (protein stock in 300 mM NaCl); NMR: same buffer with 300 mM NaCl, 20; conditions: protein: recombinant; tags: C-terminal His6; label: 5' fluorescein or TAMRA (FA); unlabeled (NMR); may form quadruplex when free
[3] = molecular target: T2, Nrd1 307-491 G409A; assay: fluorescence anisotropy; FA: 10 nM RNA, 50 mM sodium phosphate pH 8, 150 mM NaCl, 10 mM beta-mercaptoethanol, 20 C (protein stock in 300 mM NaCl); NMR: same buffer with 300 mM NaCl, 20; conditions: protein: recombinant; tags: C-terminal His6; label: 5' fluorescein or TAMRA (FA); unlabeled (NMR)
[4] = molecular target: T3, Nrd1 307-491 K435D; assay: as above; conditions: protein: recombinant; tags: C-terminal His6; label: 5' fluorescein or TAMRA (FA); unlabeled (NMR)
[5] = molecular target: T4, Nrd1 307-491 F342A; assay: as above; conditions: protein: recombinant; tags: C-terminal His6; label: 5' fluorescein or TAMRA (FA); unlabeled (NMR)
[6] = molecular target: T5, Nrd1 307-491 T431R; assay: as above; conditions: protein: recombinant; tags: C-terminal His6; label: 5' fluorescein or TAMRA (FA); unlabeled (NMR)
[7] = molecular target: T6, Nrd1 307-491 D417A; assay: as above; conditions: protein: recombinant; tags: C-terminal His6; label: 5' fluorescein or TAMRA (FA); unlabeled (NMR)
[8] = molecular target: T7, Nrd1 307-491 R429D; assay: as above; conditions: protein: recombinant; tags: C-terminal His6; label: 5' fluorescein or TAMRA (FA); unlabeled (NMR)
[9] = molecular target: T8, Nrd1 307-491 H376A; assay: as above; conditions: protein: recombinant; tags: C-terminal His6; label: 5' fluorescein or TAMRA (FA); unlabeled (NMR)
[10] = molecular target: T9, Nrd1 307-491 F378A; assay: as above; conditions: protein: recombinant; tags: C-terminal His6; label: 5' fluorescein or TAMRA (FA); unlabeled (NMR)

Binder	Kd ([1]; label: 5' fluorescein or TAMRA) [µM]	also measured
CACACAC (ssRNA)	108 ± 4	
UGGA (ssRNA)	94.1 ± 3.9	
AGCGUGAAUUAAGUCUUGCACACACA (ssRNA) [win78dNrd1dAUrichCA]	5.4 ± 0.2	
CCCCUGAAUUAAGCCCCCCCCCCCCC (ssRNA) [win78polyC]	7.2 ± 0.5	
GGGGGGG (ssRNA) [G7]		Kd [2]: 5.7 ± 1.2 µM
UGGUGGU (ssRNA)	6.8 ± 0.6	
GCGGGGC (ssRNA)		Kd [3]: 30.3 ± 3.9 µM; Kd [4]: 50.5 ± 10.8 µM; Kd [5]: 29.5 ± 4 µM; Kd ([1]; label: 5' fluorescein or TAMRA (FA), unlabeled (NMR)): 9.8 ± 0.3 µM; Kd [6]: 48 ± 2.9 µM; Kd [7]: 31.7 ± 6 µM; Kd [8]: 60.1 ± 3.5 µM; Kd [9]: 37.5 ± 3.7 µM; Kd [10]: 73.4 ± 10.7 µM
AGCGUGAAUUAAGAGCGUAUAUAUAA (ssRNA) [win78dNrd1dNab3]	7.9 ± 0.3	
AUAUAUA (ssRNA)	11.3 ± 0.5	
GUAAUGAAUUAAGUCUUGAUAUAUAA (ssRNA) [win78wt]	1.5 ± 0.1	
GCGGGCG (ssRNA)	13.2 ± 0.5	
CAGCGUC (ssRNA)	37.7 ± 1.1	
AGCGUGAAUUAAGUCUUGAUAUAUAA (ssRNA) [win78dNrd1]	2.5 ± 0.2	
UCUUG (ssRNA)	41.1 ± 2.7	
AUUAUUA (ssRNA)	14.8 ± 0.4	
UUUUUUU (ssRNA) [U7]	69.8 ± 3.2	
GUUGUUG (ssRNA)	13 ± 0.7	
AAAAAAA (ssRNA) [A7]	32.1 ± 0.9	
